Reference: PMC11213201 (2024)

B1: ZFYVE21-FLAG [not stated] / LC3B [human (endogenous in HUVEC)] (parent complex)
chain 1: MSSEVSARRDAKKLVRSPSGLRMVPEHRAFGSPFGLEEPQWVPDKECRRCMQCDAKFDFLTRKHHCRRCGKCFCDRCCSQKVPLRRMCFVDPVRQCAECALVSLKEAEFYDKQLKVLLSGATFLVTFGNSEKPETMTCRLSNNQRYLFLDGDSHYEIEIVHISTVQILTEGFPPGGGNARATGMFLQYTVPGTEGVTQLKLTVVEDVTVGRRQAVAWLVAMHKAAKLLYESRDQ
chain 2: not shown

Variants of: B1
Test: FLAG co-IP and Western blot (densitometry); transduced HUVECs; read off a plot

response	Variant
~0.17 Fold Change LC3-II	chain 1 F57A
~0.092 Fold Change LC3-II	chain 1 L149A
~0.036 Fold Change LC3-II	chain 1 Y146A
~0.078 Fold Change LC3-II	chain 1 L60A
